Target: T1, p53 wild type peptide on HLA-A*02:01 (human)
T1 peptide: HMTEVVRRC
Test: activation reporter or marker

binding result: no recognition
B1: p53R175H peptide specific TCR (the inventive TCR) (TCR, V domains shown)
Valpha: GIQVEQSPPDLILQEGANSTLRCNFSDSVNNLQWFHQNPWGQLINLFYIPSGTKQNGRLSATTVATERYSLLYISSSQTTDSGVYFCAVNQAGTALIFGKGTTLSVSS
Vbeta: EPEVTQTPSHQVTQMGQEVILRCVPISNHLYFYWYRQILGQKVEFLVSFYNNEISEKSEIFDDQFSVERPDGSNFTLKIRSTKLEDSAMYFCASMGTGDEAFFGQGTRLTVV

Reference: US20240415886A1 (published 2024)
